Reference: PMC7496416 (Molecular microbiology, 2020)

What was measured:
NasR (His10-MBP-NasR) = biological target: T1, NasR (His10-MBP-NasR) (Klebsiella oxytoca, UniProt Q48468); test: fluorescence anisotropy of Cy3-labelled P1P2 nasF leader RNA, ion titration; assay type: biochemical; conditions: 8 uM protein; 50 mM HEPES pH 7.5, 100 mM KCl, 1 mM MgCl2; allosteric activator, NIT domain
T1 sequence (Q48468 1-396): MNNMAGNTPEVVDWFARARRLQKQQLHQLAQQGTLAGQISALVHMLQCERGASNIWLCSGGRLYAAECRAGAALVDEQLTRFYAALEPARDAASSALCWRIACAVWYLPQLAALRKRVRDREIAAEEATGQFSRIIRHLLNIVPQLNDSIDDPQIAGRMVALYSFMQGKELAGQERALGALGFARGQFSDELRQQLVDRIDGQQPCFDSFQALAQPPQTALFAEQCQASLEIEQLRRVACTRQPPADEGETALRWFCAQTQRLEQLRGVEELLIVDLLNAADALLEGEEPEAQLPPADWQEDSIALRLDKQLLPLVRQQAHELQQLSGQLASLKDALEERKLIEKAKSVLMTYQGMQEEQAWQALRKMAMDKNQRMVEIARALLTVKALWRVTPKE

[1] = tested on: NasR K347R (Klebsiella oxytoca); test: fluorescence anisotropy; conditions: 50 mM HEPES pH 7.5, 100 mM KCl, 1 mM MgCl2, with or without 1 mM KNO3; 50 nM Cy3-RNA final; 30 min in the dark, temperature not stated; Hill fit
[2] = tested on: NasR wild type (Klebsiella oxytoca); test: fluorescence anisotropy; conditions: 50 mM HEPES pH 7.5, 100 mM KCl, 1 mM MgCl2, with or without 1 mM KNO3; 50 nM Cy3-RNA final; 30 min in the dark, temperature not stated; Hill fit
[3] = tested on: NasR R340K (Klebsiella oxytoca); test: fluorescence anisotropy; conditions: 50 mM HEPES pH 7.5, 100 mM KCl, 1 mM MgCl2, with or without 1 mM KNO3; 50 nM Cy3-RNA final; 30 min in the dark, temperature not stated; Hill fit

Compound	activation of RNA binding (Hill fit) (NasR (His10-MBP-NasR))	binding signal (fold weaker than wild type) [1]	Kd [2]	binding signal (fold weaker than wild type) [3]
O=[N+]([O-])O [nitrate]	RNA binding activity was only observed in conditions containing nitrate or nitrite			
O=NO [nitrite]	RNA binding activity was only observed in conditions containing nitrate or nitrite			
P1P2 two-hairpin RNA		10	1 µM	10
P2 single-hairpin RNA			12 µM	
